{"source": "patent US7572436B1", "about": "“Thionin as an antineoplastic and immunostimulant” (priority 2000, dated 2009)", "molecules": {"B1": {"name": "interleukin-2 (protein, UniProt P04351 21-169, looked up)", "Interleukin-2": "APTSSSTSSSTAEAQQQQQQQQQQQQHLEQLLMDLQELLSRMENYRNLKLPRMLTFKFYLPKQATELKDLQCLEDELGPLRHVLDLTQSKSFQLEDAENFISNIRVTVVKLKGSDNTFECQFDDESATVVDFLRRWIAFCQSIISTSPQ", "notes": "immunostimulatory cytokine; murine IL-2 in the mouse experiments, purchased from Sigma"}}, "key": {"[1]": {"target": "high affinity binding site on murine Balb/C splenocytes (mouse)", "experiment": "binding of 125I-labelled PT to isolated murine spleen cells; non-specific binding (100-fold excess of unlabelled iodinated PT) subtracted"}, "[2]": {"test_system": "Balb C splenocytes", "experiment": "Mitogen assay (^3H-thymidine uptake), murine splenocytes", "format": "cell-based", "settings": "for CPM of tritiated thymidine incorporated: Balb C splenocytes", "from_the_text": "(§1) Murine spleen cells or human peripheral blood lymphocytes (PBLS) were obtained aseptically as described herein for use in the mitogen assay. When murine splenocytes were used, they were first treated with red cell lysing buffer (0.17 M Tris, 0.144 NH4C1, pH 7.2), washed in RPMI-10 (standard RPMI growth medium, Sigma Chemical Co., St. Louis, Mo., supplemented with 10% fetal bovine serum) and viable cells counted using Trypan Blue exclusion. Human PBLs were isolated from blood using HISTOPAQUE™-1077, a solution of FICOLL™ and sodium diatrizoate (Sigma Chemical Co., St. Louis, Mo.), and subsequent washings with RPMI-5 (RPMI supplemented with 5% fetal bovine serum) to remove platelets. Isolated lymphocytes were resuspended in RPMI-10 and a viable cell yield determined by Trypan Blue exclusion.\n(§2) Drugs and known mitogenic controls were added in triplicate to a 96-well flat bottom microplate aseptically. The culture medium was RPMI-10. Splenocytes or human-lymphocytes were added at a concentration of 3-4×10^5 cells/well, to a final volume of 200 μl/well. The assay plate was incubated at 37° C. in a 5% CO2 humidified incubator. At 48-50 hours, ^3H-thymidine was added (1 μCi/well), and the plate was harvested approximately 16-18 hours later.\n(§3) Mitogen assay microplates were harvested using an Inotech plate harvester (Inotech Biosystems International, Inc., Rockville, Md.). Counts per minute (cpm) per well were measured using the Berthold-Inotech Trace 96-plate reader (Inotech AT, Wohlen, Switzerland) and/or a scintillation counter (Packard Tri-carb 2100TR, Packard Instrument Co., Meriden, Conn.). Mitogenic activity was directly determined by comparing cpm levels to controls.\n(§4) To test whether PT stimulates mitogen activity, splenocytes were incubated for two days with IL-2 (50 units/ml) or KLH (20 μg/ml) in conjunction with PT in the concentrations shown. Figures represent the radioactivity counts of tritiated thymidine taken up during a subsequent 20-hour incubation period of cells incubated with tritiated thymidine in RPMI."}, "[3]": {"test_system": "IL-12", "experiment": "ELISA of IL-12 production by splenocytes", "format": "cell-based, Balb C murine", "settings": "Experiment 1; 48 hours; PT 0.05 μg/ml, KLH 10 μg/ml; control 1.5", "procedure": "(§5) Identical plates are set up for an immunoassay and a mitogen assay. Mouse splenocytes and immuno-stimulating drugs are plated in duplicate wells (immunoassay) and triplicate wells (mitogen assay) in 96-well microplates as described above. The incubation at 37° C. in a humidified 5% CO2 incubator may vary from three to five days. At the end of the activation/proliferation period, the two identical plates are harvested as an immunoassay for cytokines or harvested as a mitogen assay (to which ^3H-thymidine has been added approximately 16-18 hours earlier).\n(§6) Immunoassay kits used to detect IL-1β, IL-2, and IL-12 were the murine Quantikine M™ kits produced by R&D Systems (Minneapolis, Minn.). The general procedure is the same for all interleukin cytokines, and is described in the instructions provided by the manufacturer. All reagents are used at room temperature, and are prepared according to kit instructions.\n(§7) The immunoassay plate is centrifuged at 200×g to pellet all cells. A 50 μl aliquot of Assay Diluent is first added to the center of each special enzyme-coated well supplied with the kit. Next, 50 μl of standard, control or test sample of supernatant from the immunoassay incubation plate is added to each well. This is incubated at room temperatures for two hours.\nLiquid is aspirated from the wells, and the wells are washed five times with surfactant diluted 1:25 with distilled water. A 100 μL aliquot of Conjugate is added to each well and incubated two hours at room temperature. […]\nOne hundred microliters of Substrate Solution are added to each well and incubated 30 minutes at room temperature. […] The plate is read for absorbence at 450 nm and at 540 nm for background readings.\nTo calculate the results, the duplicate readings for each pair of standard, control, and test samples are averaged and the average background optical density readings are subtracted. […] Picograms of cytokine are determined from the standard curve. Mitogenic activity determined from the cpm of ^3H-thymidine is compared to the concentrations of cytokine in the experimental samples in the corresponding immunoassay. […]"}, "[4]": {"test_system": "IL-1", "experiment": "ELISA of IL-1 production by splenocytes", "format": "cell-based, Balb C murine", "settings": "48 hours, PT 0.05 μg/ml", "procedure": "as §5, §6, §7\nLiquid is aspirated from the wells, and the wells are washed five times with surfactant diluted 1:25 with distilled water. A 100 μL aliquot of Conjugate is added to each well and incubated two hours at room temperature. The wells are again aspirated and each well washed five times.\nOne hundred microliters of Substrate Solution are added to each well and incubated 30 minutes at room temperature. Stop Solution (100 μl) is then added to each well. The color change is light blue to yellow (activity). The plate is read for absorbence at 450 nm and at 540 nm for background readings.\nTo calculate the results, the duplicate readings for each pair of standard, control, and test samples are averaged and the average background optical density readings are subtracted. A standard curve is constructed for the cytokine by plotting the mean absorbence for each standard on the y-axis against the concentration on the x-axis and drawing a best-fit curve. Picograms of cytokine are determined from the standard curve. Mitogenic activity determined from the cpm of ^3H-thymidine is compared to the concentrations of cytokine in the experimental samples in the corresponding immunoassay.\nOne measure of macrophage activation is the production of the cytokine interleukin-1 (IL-1) and also interleukin-12 (IL-12). Incubation of 3×10^5 Balb C murine spleen cells with 0.05 μg/ml PT was performed for 48 hours. The supernatant fluid was assayed with commercial ELISA kits for IL-1 and IL-12. […] Some experiments gave less […] and some more. This is likely a reflection of the state of the immune system in the experimental mice. The addition of KLH, an effective antigen, increased both IL-1 and IL-12 production, and the addition of PT along with the KLH further increased the production of these cytokines."}, "[5]": {"test_system": "Balb C splenocytes", "experiment": "Mitogen assay (^3H-thymidine uptake), murine splenocytes", "format": "cell-based"}, "[6]": {"test_system": "non-adherent human PBLs", "experiment": "Mitogen assay (^3H-thymidine uptake), human PBLs", "format": "cell-based", "settings": "IL-2 50 units/ml alone (PT = 0)", "from_the_text": "as §1, §2, §3, §4"}, "[7]": {"test_system": "YAC-1 target cells", "experiment": "Natural killer assay (^51Cr release), murine splenocytes against YAC-1", "format": "cell-based", "settings": "Swiss Webster murine splenocytes; YAC-1 targets; 48 hours with drugs; PT 0.01 μg/ml, IL-2 50 units/ml when present; effector to target ratio 80", "procedure": "Murine spleen cell and human peripheral blood lymphocytes (PBLs) were obtained as described in the procedure for the Mitogen Assay.\nDrugs and control substances were added, using sterile techniques, to the wells of a 24-well plate, using RPMI-10 as the culture medium. Spleen cells or human lymphocytes were added last to the wells at a concentration of 4×10^6 cells per 2 ml total volume in the well. Splenocyte incubation was usually three days (65-70 hours) while human lymphocyte stimulation may be extended to four to five days. The cells were incubated at 37° C. in a humidified 5% CO2 incubator.\nOn the day of harvest, 10^7 target cells were labeled with 150 μCi of ^51Cr (sodium chromate). Target cells used were YAC-I (murine Lymphoma) or K562 (human chronic myelogenous leukemia).\nThe cells were adjusted to 2×10^7 cells/ml in RPMI-10 and 150 μCi of ^51Cr were added to 500 μl of the target cell suspension (10^7 total cells) and incubated in a 5% CO2 humidified incubator for 1.5 hours. The labeled cells were washed three times with 10 ml RPMI-10 and then resuspended in 5 ml (2×10^6 cells/ml). Supernatants from washings of labeled cells were isolated and contained under lead shielding.\nThe stimulated effector cells were thoroughly mixed and removed from individual wells of the 24-well plate and transferred to tubes for centrifugation at 200×g. The supernatants were decanted and the pelleted cells washed once with 2 ml RPMI-10. The cells were finally resuspended in a total volume of 500 μl at approximately 8×10^6 cells/ml in RPMI-10.\nOne hundred microliters of the effector cell suspension (8×10^5 cells) were added in triplicate to a 96-well, V-bottom microplate. RPMI-10 was added to the wells designated for spontaneous release and total release of the target cells. One hundred microliters of the target cell suspension (1×10^4 cells/well) were added to the wells for a total volume of 200 μl. The “total release” wells contained 15 μl of 9% Triton X-100, 85 μl of RPMI-10, and 100 μl of target cells.\nThe 96-well plate was centrifuged at 150×g for four minutes to gently bring the effector and target cells in contact. The plate was then incubated in a humidified 5% CO2 incubator. After four hours, the assay plate was again centrifuged for five minutes at 250×g. One hundred microliters of the supernatant was carefully removed from each well and placed in 12 mm×75 mm glass tubes for counting in a gamma counter. The percent release was calculated using the following formula: […]\nAddition of PT stimulates both murine splenocytes and human PBLs to kill tumor cells through lysis. This effect is enhanced in the presence of IL-2. Experimentally, the YAC-1 tumor cell line is routinely used as a target cell for murine NK cells, and the K562 cell line is used as the target for human PBLs. The human prostate cell line DU145 was also included in the test. The data set out in Table 5 show an activation of both murine and human NK cells by PT and IL-2. For these experiments, the drugs, PT and IL-2, were included in the cell suspension and incubated for 48 hours. After this period, the splenocyte suspension was mixed with the YAC-1 target cells that had been loaded with ^51Cr for four hours. The human PBLs were added to a K562 or DU-145 cell suspension that had been similarly loaded. After a 30-minute incubation, the radioactivity in the supernatant fluid was counted as a measure of lysis of the target cells, which reflects NK activity. […]"}, "[8]": {"test_system": "B16F10 melanoma tumor cells", "experiment": "In vivo inhibition of B16F10 melanoma tumor development", "design": "species or system C57BL/6NCr female mice", "settings": "B16 melanoma in C57 mice, sc 3 μg PT, 100 units IL-2", "procedure": "C57BL/6NCr female mice (20 g), approximately 50 days old, were shaved in the abdominal area, ear notched for identification, and, two or three days prior to receiving tumor cells, pre-injected subcutaneously with the immunostimulating drugs described.\nOn “day zero,” B16F10 melanoma tumor cells, cultured in αMEM medium with 10% FBS, were injected intradermally (10^5 cells in 0.1 ml) in the center of the mouse abdomen using a 26 gauge ½ inch needle. Four to five hours later, the drug treatment (as specified) was injected intradermally in a different area of the abdomen than the site of the tumor injection.\nIntradermal treatments using the immunostimulatory drug (as specified) continued either every other day or on a Monday-Wednesday-Friday injection schedule. Control tumors (in mice not receiving an immunostimulatory drug) usually formed within seven to ten days. Tumors were examined by visual inspection, measured (length by width), and the area of any resulting lesion was recorded as mm^2 every five days.\nMice were euthanized by CO2 inhalation if the tumor exceeded 500 mm^2. Some experiments were terminated early if all mice in the control group were dead, but the experiments were not less than 20 days. The normal duration of an experiment was about 30 days.\nPyrularia thionin, both alone and in combination with IL-2, was effective in preventing or retarding the development of melanoma tumors when C57BL/6NCr mice were pretreated before injection with B16F10 cells, which produce melanoma tumors."}}, "data": [{"molecule": "Pyrularia thionin (from UniProt P07504) (peptide)", "values": [{"measurement": "Kd", "setting": "[1]", "result": 65, "unit": "nM"}]}, {"molecule": "keyhole limpet hemocyanin [KLH, reference compound]", "values": [{"measurement": "CPM of tritiated thymidine incorporated", "setting": "[2]; KLH 20 μg/ml alone (PT = 0)", "result": "3,301 ± 255 CPM"}, {"measurement": "IL-12", "setting": "[3]", "result": "21 ± 1.6", "unit": "pg/mL"}, {"measurement": "IL-1", "setting": "[4]; Experiment 1, KLH 10 μg/ml, control 3.9", "result": "12.4 ± 0", "unit": "pg/mL"}, {"measurement": "IL-1", "setting": "[4]; Experiment 4, KLH (20 mg/ml), control 9", "result": "9 ± 0.4", "unit": "pg/mL"}]}, {"molecule": "OCCS", "note": "[βME, β-mercaptoethanol, reference compound]", "values": [{"measurement": "stimulation of the mitogen reaction", "setting": "[5]; 0.1 μg/ml (PT 20 nM; βME 40 nM)", "result": "no stimulation"}]}, {"molecule": "granulocyte-macrophage colony-stimulating-factor [GM-CSF]", "values": [{"measurement": "Cpm, standard mitogen assay", "setting": "[2]; GM-CSF (20 ng/ml) alone, no PT", "result": "1,170 Cpm"}, {"measurement": "Cpm, standard mitogen assay", "setting": "[5]; GM-CSF (5 ng/ml) alone, no PT", "result": "1,024 Cpm"}]}, {"molecule": "B1", "values": [{"measurement": "CPM of tritiated thymidine incorporated", "setting": "[2]; IL-2 50 units/ml alone (PT = 0)", "result": "2,379 ± 87 CPM"}, {"measurement": "CPM of tritiated thymidine incorporated", "setting": "[6]", "result": "1,900 ± 64 CPM"}, {"measurement": "% Cytotoxicity", "setting": "[7]", "result": "16.3 ± 1.1", "unit": "%"}, {"measurement": "Average Tumor Size", "setting": "[8]; 20-31 days", "result": 364, "unit": "mm^2"}, {"measurement": "Number of Deaths", "setting": "[8]; total mice 12 (IL-2), 15 (PT), 24 (PT + IL-2)", "result": 1}, {"measurement": "Mice w/o Tumors", "setting": "[8]; total mice 12 (IL-2), 15 (PT), 24 (PT + IL-2), 20-31 days", "result": 0}]}]}
